From PMC13507078, “The BRCT domain enhances DNA binding and catalytic efficiency of fungal PARPs”

What was measured:
[1] = target: T1, Af-PARP1 S241Q (Aspergillus fumigatus, UniProt B0Y3N8 1-23+35-688, S252Q;internal_change); experiment: EMSA; EMSA: 50 mM HEPES pH 8, 100 mM NaCl, 10% glycerol, 10 mM DTT, 45 min at 4 °C, 7% native PAGE 0.5x TBE; plasmid EMSA: 20 mM Tris-HCl pH 8, 30 mM NaCl, 1 mM EDTA, 1 mM DTT; CD: 20 mM HEPES pH 8, 100 mM NaCl, 0.5 mM TCEP, 2% glycerol; settings: protein: recombinant; tags: His; described as blunt duplex; printed strands not exactly complementary
[2] = target: T1, Af-PARP1 S241Q; experiment: EMSA; mutation did not restore binding; EMSA: 50 mM HEPES pH 8, 100 mM NaCl, 10% glycerol, 10 mM DTT, 45 min at 4 °C, 7% native PAGE 0.5x TBE; plasmid EMSA: 20 mM Tris-HCl pH 8, 30 mM NaCl, 1 mM EDTA, 1 mM DTT; CD: 20 mM HEPES pH 8, 100 mM NaCl, 0.5 mM TCEP, 2% glycerol; settings: protein: recombinant; tags: His; hairpin, blunt end
[3] = target: Af-PARP1 S14A (Aspergillus fumigatus, UniProt B0Y3N8 1-23+35-688, S14A;internal_change); experiment: EMSA; EMSA: 50 mM HEPES pH 8, 100 mM NaCl, 10% glycerol, 10 mM DTT, 45 min at 4 °C, 7% native PAGE 0.5x TBE; plasmid EMSA: 20 mM Tris-HCl pH 8, 30 mM NaCl, 1 mM EDTA, 1 mM DTT; CD: 20 mM HEPES pH 8, 100 mM NaCl, 0.5 mM TCEP, 2% glycerol; settings: protein: recombinant; tags: His; dumbbell of two hairpins, nick
[4] = target: Af-PARP1 K52A (Aspergillus fumigatus, UniProt B0Y3N8 1-23+35-688, K63A;internal_change); experiment: as above; settings: protein: recombinant; tags: His; dumbbell of two hairpins, nick
[5] = target: Af-PARP1 K60A (Aspergillus fumigatus, UniProt B0Y3N8 1-23+35-688, K71A;internal_change); experiment: as above; settings: protein: recombinant; tags: His; dumbbell of two hairpins, nick
[6] = target: Af-PARP1 Q22A (Aspergillus fumigatus, UniProt B0Y3N8 1-23+35-688, Q22A;internal_change); experiment: as above; settings: protein: recombinant; tags: His; dumbbell of two hairpins, nick
[7] = target: Af-PARP1 E53A (Aspergillus fumigatus, UniProt B0Y3N8 1-23+35-688, E64A;internal_change); experiment: as above; settings: protein: recombinant; tags: His; dumbbell of two hairpins, nick
[8] = target: Af-PARP1 K56A (Aspergillus fumigatus, UniProt B0Y3N8 1-23+35-688, K67A;internal_change); experiment: as above; settings: protein: recombinant; tags: His; dumbbell of two hairpins, nick
[9] = target: Af-PARP1 K52/60A (Aspergillus fumigatus, UniProt B0Y3N8 1-23+35-688, K63A;K71A;internal_change); experiment: as above; settings: protein: recombinant; tags: His; dumbbell of two hairpins, nick

B1: DNA-16/17 (5'P duplex) (dsDNA)
DNA 1: GACGACCCGGACACA
DNA 2: TGTGCTCCGGGTCGTC
modifications: 5'-phosphate on DNA-16
binding result [1]: binds

B2: DNA-5 (5'P blunt) (structured_DNA)
DNA: GGAAGTTCTTTTGAACTTCC
modifications: 5'-phosphate
binding result [2]: no binding

B3: DNA-1 (5'P nick) (structured_DNA)
DNA: CGGTCGATCGTAAGATCGACCGGCGCTGGAGCTTGCTCCAGCGC
modifications: 5'-phosphate
binding result [3]: binds | binding result [4]: binds | binding result [5]: binds | binding result [6]: binds | binding result [7]: binds | binding result [8]: binds | binding result [9]: binds
